In publication PMC2936869, “Secreted fungal sulfhydryl oxidases: sequence analysis and characterisation of a representative flavin-dependent enzyme from Aspergillus oryzae” (BMC Biochemistry, 2010):

Tests used:
AoSOX1 = target: T1, AoSOX1 (Aspergillus oryzae, UniProt Q2UA33); experiment: UV/visible absorption; cofactor released by thermal and chemical denaturation; assay type: binding; conditions: non-covalently bound cofactor; 20 mM Tris-HCl pH 7.0, 25 °C
T1 construct: gene AO090102000564; secreted full-length protein, 384 aa including predicted 19-residue signal peptide (removed); C-terminal His6 tag added but apparently cleaved off by host protease; expressed in Trichoderma reesei; N-glycosylated; MW 43959 by MS
T1 sequence (Q2UA33 20-384): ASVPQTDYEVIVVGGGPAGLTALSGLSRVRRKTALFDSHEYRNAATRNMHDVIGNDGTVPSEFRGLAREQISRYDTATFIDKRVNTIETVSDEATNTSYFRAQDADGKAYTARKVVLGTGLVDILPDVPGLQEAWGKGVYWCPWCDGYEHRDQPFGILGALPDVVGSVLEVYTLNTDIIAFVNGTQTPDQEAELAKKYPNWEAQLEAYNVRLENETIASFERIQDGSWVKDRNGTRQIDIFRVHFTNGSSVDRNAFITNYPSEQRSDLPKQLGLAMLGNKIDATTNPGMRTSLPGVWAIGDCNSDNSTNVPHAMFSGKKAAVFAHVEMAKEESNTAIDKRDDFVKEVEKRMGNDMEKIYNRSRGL

[1] = substrate: OCCS; experiment: initial rates, Michaelis-Menten (HVA-peroxidase coupled assay, the paper's general assay); assay type: biochemical, Aspergillus oryzae; conditions: co-substrate O2, general assay in 50 mM potassium phosphate, 0.3 mM EDTA, pH 7.5
From the text: (§1) initial rates, Michaelis-Menten (HVA-peroxidase coupled assay, the paper's general assay) on AoSOX1

[2] = substrate: N[C@@H](CS)C(=O)O; experiment: as above; assay type: biochemical, Aspergillus oryzae; conditions: co-substrate O2, general assay in 50 mM potassium phosphate, 0.3 mM EDTA, pH 7.5
From the text: as §1

[3] = substrate: N[C@H](CS)C(=O)O; experiment: as above; assay type: biochemical, Aspergillus oryzae; conditions: co-substrate O2, general assay in 50 mM potassium phosphate, 0.3 mM EDTA, pH 7.5
From the text: as §1

Question: Which “UV/visible absorption; cofactor released by thermal and chemical denaturation” value (AoSOX1) does the source give for `Cc1cc2nc3c(=O)[nH]c(=O)nc-3n(C[C@H](O)[C@H](O)[C@H](O)COP(=O)(O)OP(=O)(O)OC[C@H]3O[C@@H](n4cnc5c(N)ncnc54)[C@H](O)[C@@H]3O)c2cc1C` [FAD] here?
Answer: The cofactor was spectrophotometrically identified to be FAD after the cofactor was released

B1: AoSOX1 (Aspergillus oryzae RIB40) (protein)
chain: T1 sequence (Q2UA33 20-384)
notes: secreted full-length protein, 384 aa including predicted 19-residue signal peptide (removed); C-terminal His6 tag added but apparently cleaved off by host protease; expressed in Trichoderma reesei; N-glycosylated; MW 43959 by MS
Question: Which results are given for B1?
Answer: Km [1]: 9.73 ± 0.08 mM; Vmax/Km [1]: 13100 min⁻¹; Km [2]: 6.11 ± 0.13 mM; Vmax/Km [2]: 21800 min⁻¹; Km [3]: 1.55 ± 0.03 mM; Vmax/Km [3]: 9780 min⁻¹; kcat [3]: 5950 s⁻¹
